Residue numbers refer to the chain shown, from its start. Where two headings read alike, the source gives them in different places.
Experiments:
Experiment in all cases: EMSA
MBD1 CXXC3 = target: T1, MBD1 CXXC3 (UniProt Q9UIS9-5 252-344)
T1 sequence: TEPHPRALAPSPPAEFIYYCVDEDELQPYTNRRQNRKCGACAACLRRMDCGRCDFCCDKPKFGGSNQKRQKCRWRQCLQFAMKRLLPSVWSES

GST-MBD1 MBD (1-161) [1] = target: T2, GST-MBD1 MBD (1-161) (UniProt Q9UIS9 1-161)
T2 sequence: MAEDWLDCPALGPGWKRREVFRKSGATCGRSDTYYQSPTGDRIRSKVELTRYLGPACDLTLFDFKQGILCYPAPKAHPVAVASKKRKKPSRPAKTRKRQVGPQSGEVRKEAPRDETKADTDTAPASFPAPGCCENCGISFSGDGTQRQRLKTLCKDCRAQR

GST-MBD1 MBD (1-161) [2] = target: T2, GST-MBD1 MBD (1-161); remark: listed apart in the source
GST-MBD1 MBD (1-161) [3] = target: T2, GST-MBD1 MBD (1-161); remark: listed apart in the source
GST-MBD1 MBD (1-161) [4] = target: T2, GST-MBD1 MBD (1-161); remark: listed apart in the source
GST-MBD1 MBD (1-161) [5] = target: T2, GST-MBD1 MBD (1-161); remark: listed apart in the source

B1: ACGG, unmethylated (dsDNA)
DNA 1: ACATGCCTCATGACGGACTTAACTGCAGCT
DNA 2: AGCTGCAGTTAAGTCCGTCATGAGGCATGT
binding result (MBD1 CXXC3): binds

B2: CCGT, unmethylated (dsDNA)
DNA 1: B1 DNA 1 with A13C, G16T
DNA 2: B1 DNA 2 with C15A, T18G
binding result (MBD1 CXXC3): binds

B3: CmCGC, methylated (dsDNA)
DNA 1: B1 DNA 1 with A13C, G16C
DNA 2: B1 DNA 2 with C15G, T18G
modifications: 5mC at CpG, both strands (implied)
binding result (GST-MBD1 MBD (1-161) [1]): binds

B4: A/T run mutated, methylated (dsDNA)
DNA 1: B1 DNA 1 with A13C, T20C, A21G
DNA 2: B1 DNA 2 with T10C, A11G, T18G
modifications: 5mC at C14 and opposite strand CpG (implied)
binding result (GST-MBD1 MBD (1-161) [2]): binds

B5: CCGC, unmethylated (dsDNA)
DNA 1: B1 DNA 1 with A13C, G16C
DNA 2: B1 DNA 2 with C15G, T18G
binding result (MBD1 CXXC3): binds

B6: TCGG, unmethylated (dsDNA)
DNA 1: B1 DNA 1 with A13T
DNA 2: B1 DNA 2 with T18A
binding result (MBD1 CXXC3): binds

B7: CCGA, unmethylated (dsDNA)
DNA 1: B1 DNA 1 with A13C, G16A
DNA 2: B1 DNA 2 with C15T, T18G
binding result (MBD1 CXXC3): binds

B8: GCGG, unmethylated (dsDNA)
DNA 1: B1 DNA 1 with A13G
DNA 2: B1 DNA 2 with T18C
binding result (MBD1 CXXC3): binds

B9: TGmCGCA, methylated (dsDNA)
DNA 1: B1 DNA 1 with G12T, A13G, G16C
DNA 2: B1 DNA 2 with C15G, T18C, C19A
modifications: 5mC at CpG, both strands (implied)
binding result (GST-MBD1 MBD (1-161) [3]): binds

B10: TmCGG, methylated (dsDNA)
DNA 1: B1 DNA 1 with A13T
DNA 2: B1 DNA 2 with T18A
modifications: 5mC at CpG, both strands (implied)
binding result (GST-MBD1 MBD (1-161) [4]): binds

B11: TTmCGCA, methylated (dsDNA)
DNA 1: B1 DNA 1 with G12T, A13T, G16C
DNA 2: B1 DNA 2 with C15G, T18A, C19A
modifications: 5mC at CpG, both strands (implied)
binding result (GST-MBD1 MBD (1-161) [5]): binds

B12: CCGG, unmethylated (dsDNA)
DNA 1: B1 DNA 1 with A13C
DNA 2: B1 DNA 2 with T18G
binding result (MBD1 CXXC3): binds

Source: PMC2919722
